Test results from patent US20260028587A1.

Target: human TMEM119 (transmembrane protein 119) (human) (UniProt Q4V9L6)
Assay: flow cytometry on primary human brain cell suspensions

Sequence of UniProt Q4V9L6 (Q4V9L6 26-283): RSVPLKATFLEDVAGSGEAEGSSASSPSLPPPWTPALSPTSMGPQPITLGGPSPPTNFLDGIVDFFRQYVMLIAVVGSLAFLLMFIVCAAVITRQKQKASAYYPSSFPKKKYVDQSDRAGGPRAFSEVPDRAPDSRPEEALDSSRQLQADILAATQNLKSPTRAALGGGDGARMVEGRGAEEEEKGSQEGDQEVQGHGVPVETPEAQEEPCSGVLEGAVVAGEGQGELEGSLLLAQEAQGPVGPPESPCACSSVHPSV

percent of CD45+/CD11B+ human brain cells stained: 70 to 98%
Substance: Mouse anti-hTMEM119 monoclonal clone A16075D (antibody)
